Assay results: the nanobody polyreactivity screen of Harvey et al. (2022)

assay: yeast display, Sf9 membrane polyspecificity reagent, FACS + sequencing; frameworks hold sequencing errors
Method in brief: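 A synthetic nanobody library was expressed on Saccharomyces cerevisiae BJ5465 by galactose induction for 36–48 hours. The library was stained for 1 hour at 4 °C with 10% biotinylated, detergent-solubilized Sf9 membrane reagent and enriched with streptavidin microbeads before FACS. Low and high (top ~1%) gates were set on anti-HA fluorescence for expression and streptavidin fluorescence for reagent binding, and each polyreactivity label reflects the gate of origin.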

Row | Sequence | polyreactivity (PSR sort gate)
1 | QVQLVESGGGLVQAGGSLRLSCAASGGTFPWYTKGWYRQAPGKERELVATIRGRDGSTFYADSVKGRFTISRDNAKNTVYLQMNSLKPEDTAVYYCAAVGRRKDLRWGVYYRFDYWGQGTQVTVSS | low polyreactivity
2 | QVQLVESGGGLVQAGGSLRLSCAASGGTFPYNAMGWYRQAPGKEREFVAAISYTGGSTYYADSVKGRFTISRDNAKNTVYLQMNSLKPEDTAVYYCATEHTRTASGYWGQGTQVTVSS | low polyreactivity
3 | QVQLVESGGGLVQAGGSLRLSCAASGGTFPYYAMGWYRQAPGKERELVADISGTDGSTYYADSVKGRFTISRDNAKNTVYLQMNSLKPEDTAVYYCNAEPHWWYWDYDYWGQGTQVTVSS | high polyreactivity
4 | QVQLVESGGGLVQAGGSLRLSCAASGGTFQDYGMGWYRQAPGTERELVAAITWSGGSTYYADSVKGRFTISRDNAKNTVYLQMNSLKPEDTAVYYCAAVYADVYLYLTAYDYWGQGTQVTVSS | low polyreactivity
5 | QVQLVESGGGLVQAGGSLRLSCAASGGTFRAYVMGWYRQAPGKERELVAAISRRGGSTYYADSVKGRFTISRDNAKNTVYLQMNSLKPEDTAVYYCNAPRLLLSYTPGLDRWPYGVYWGQGTQVTVSS | high polyreactivity
6 | QVQLVESGGGLVQAGGSLRLSCAASGGTFRGYAMGWYRQAPGKERELVAAISRGTSTNYADSVKGRFTISRDNAKNTVYLHLNSLKPEDTAVYYCNAAKRGWYYDYYYWGQGTQVTVSS | high polyreactivity
7 | QVQLVESGGGLVQAGGSLRLSCAASGGTFRGYAMGWYRQAPGKERELVAAITYSGGRTYYADSVKGRFTISRDNAKNTVYLQMNSLKPEDTAVYYCNAQSSGRLSYRYDYWGQGTQVTVSS | high polyreactivity
8 | QVQLVESGGGLVQAGGSLRLSCAASGGTFRNYAMGWYRQAPGKERELVAGITSGSRTNYADSVKGRFTISRDNAKNTVYLQMNSLKPEDTAVYYCNARGNYVGRPYPVKHAYRSYYWGQGTQVTVSS | high polyreactivity
9 | QVQLVESGGGLVQAGGSLRLSCAASGGTFRRYAMGWYRQAPGKEREFVAAITISGGNTYYADSVKGRFTISRDNAKNTVYLQMNSLKPEDTAVYYCAKDHIRKQPEGRRMDYWGQGTQVTVSS | low polyreactivity
10 | QVQLVESGGGLVQAGGSLRLSCAASGGTFRRYAMGWYRQAPGKERELVAAISWTGGSTYYADSVKGRFTISRDNAKNTVYLQMNSLKPEDTAVYYCAAVGSSSSKGGYWGQGTQVTVSS | high polyreactivity
11 | QVQLVESGGGLVQAGGSLRLSCAASGGTFRSYTMGWYRQAPGKERELVAAISWGGSTYYADSVKGRFTISRDNAKNTVYLQMNSLKPEDTAVYYCAADYWSFYRKRDYWGQGTQVTVSS | low polyreactivity
12 | QVQLVESGGGLVQAGGSLRLSCAASGGTFRVYAMGWYIQAPGKERELVASISWTVGGTYADSVKGRFTISRDNAKNTVYLQMNSLKPEDTAVYYCAAGGEWVNPYFPSSLDYWGQGTQVTVSS | low polyreactivity
13 | QVQLVESGGGLVQAGGSLRLSCAASGGTFRVYAMGWYRQAPGKERELVAAITGRGGSTYYADSVKGRFTISRDNAKNTVYLQMNSLKPEDTAVYYCAKDPVTTYYKYDYWGQGTQVTVSS | low polyreactivity
14 | QVQLVESGGGLVQAGGSLRLSCAASGGTFRVYAMGWYRQAPGKERELVAAITGRGGSTYYADSVKGRFTISRDNAKNTVYLQMNSLKPEDTAVYYCNKESELVEYDYWGQGTQVTVSS | low polyreactivity
15 | QVQLVESGGGLVQAGGSLRLSCAASGGTFRVYTMGWYRQAPGKERELVAAIILRGGGTYYADSVKGRFTISRDNAKNPVYLQMNSLNPEDTAVYYCNARSGNRYGPRYDYWGQGTQVTVSS | high polyreactivity
16 | QVQLVESGGGLVQAGGSLRLSCAASGGTFSKNAMGWSRQAPGKERELVADIRSGGSTYYADSVKGRFTISRDNAKNTVYLQMNSLKPEDTAVYYCNADGDVNEYDYWGQGTQVTVSS | low polyreactivity
17 | QVQLVESGGGLVQAGGSLRLSCAASGGTFSSNAMGWYRQAPGKERELVAAIRSTGRTYYADSVKGRFTISRDNAKNTVYLQMNSLKPEDTAVYYCAADLGRTPTGKIGFDYWGQGTQVTVSS | high polyreactivity
18 | QVQLVESGGGLVQAGGSLRLSCAASGGTFSSYDMGWYRQAPGKERELVAAISWSGSSTDYADSVKGRFTISRDNAKNTVYLQMNSLKPEDTAVYYCNTDYWEITYSGVIWPEYDYWGQGTQVTVSS | low polyreactivity
19 | QVQLVESGGGLVQAGGSLRLSCAASGGTFSYYAMGWYRQAPGKERELVAAISGNGDTTYYADSVKGRFTSSRDNAKNTVYLQMNSLKPEYTAVYYCNVYVSAGEEVEYWGQGTQVTVSS | low polyreactivity
20 | QVQLVESGGGLVQAGGSLRLSCAASGGTFSYYTMGWYRPAPGKERELVAAISSGGSTNYADSVKGRFTISRDNAKNTVYLQMNSLKPEDTAVYYCAVRSGRRNYDRPAFGYWGQGTQVTVSS | high polyreactivity
21 | QVQLVESGGGLVQAGGSLRLSCAASGGTFTDYAMGWYRQAPGKERELVAAISSVGSTNYADSVKGRFTISRDNAKNTVYLQMNSLKPEDTAVYYCAVDYGRAVQGDSITYDFNYWGQGTQVTVSS | low polyreactivity
22 | QVQLVESGGGLVQAGGSLRLSCAASGGTFTNYAMGWYRQAPGKERELVAAITDSGATTYYADSVKGRFTISRDNAKNTVYLQMNSLKPEDTAVYYCNAALDLYTDFDYWGQGTQVTVSS | low polyreactivity

Row | Sequence | polyreactivity (PSR sort gate)
23 | QVQLVESGGGLVQAGGSLRLSCAASGGTFVFYAMGWYRQAPGKERELVAAISSAGRTYYADSVKGRFTISRDNAKNTVYLQMNSLKPEDTAVYYCAAVSSQYDGRYYYWGQGTQVTVSS | high polyreactivity
24 | QVQLVESGGGLVQAGGSLRLSCAASGGTFVGYAMGWYRQAPGKERELVASITRRGGNTYYADSVKGRFTISRDNAKNTVYLQMNSLKPEDTAVYYCDRRYYYQYRYDYWGQGTQVTVSS | high polyreactivity
25 | QVQLVESGGGLVQAGGSLRLSCAASGGTFVRYAMGWYRQAPGKERELVAAISRSGGSTYYADSVKGRFTISRDNAKNTVYLQMNSLKPEDTAVFYCNKDRQRYGEDYWGQGTQVTVSS | high polyreactivity
26 | QVQLVESGGGLVQAGGSLRLSCAASGGTFVYALGWYRQAPGKERELVAAISARTTGTYYADSVKGRFTISRDNAKNTVYLQMNSLKPEDTAVYYCAAKSKLSRDLYSWGQGTQVTVSS | low polyreactivity
27 | QVQLVESGGGLVQAGGSLRLSCAASGGTFWAYTRGWYRQAPGKERELVATISFGTGNTYYADSVKGRFTISRDNAKNTVYLQMNSLKPEDTAVYYCAAQWPELTRSYVTVEVDYWGQGTQVTVSS | low polyreactivity
28 | QVQLVESGGGLVQAGGSLRLSCAASGGTFWRNDMGWYRQAPGKERELVAAISYSGGTTYYADSVKGRFTISRDNAKNTVDLQMNSLKPEDTAVDYCATGGYSTRQSTFDYWGQGTQVTVSS | low polyreactivity
29 | QVQLVESGGGLVQAGGSLRLSCAASGGTFYANAMGWYREAPGKERELVATITSSSGSTSYADSVKGRFTISRDNAKNTVYLQMNSLKPEDTAVYYCAKDSHAQGPYRYKHYHHTGDYWGQGTQVTVSS | low polyreactivity
30 | QVQLVESGGGLVQAGGSLRLSCAASGGTFYAYAMGWYRQAPGKERELVAAITSGGRTYYADSVKGRFTISRDNAKNTVYLQMNSLKPEDTAVYYCAAKYFRGVKRDYWGQGTQVTVSS | high polyreactivity
31 | QVQLVESGGGLVQAGGSLRLSCAASGGTFYEYVMGWDRQAPGKERELVAAISWGDGSTYYADSVKGRFTISRDNAKNTVYLQMNSLKPEDTAVYYCAADHTVFTYEYWGQGTQVTVSS | high polyreactivity
32 | QVQLVESGGGLVQAGGSLRLSCAASGGTFYPYAMGWYRPAPGKERELVAAISASDDNTYYADSVKGRFTISRDNAKNTVYLQMNSLKPEDTAVYYCAKRSYFYPYYYWGQGTQVTVSS | high polyreactivity
33 | QVQLVESGGGLVQAGGSLRLSCAASGGTFYRYAMGWYRQAPGKERELVAVISKRGGTTYYADSVKGRFTISRDNAKNTVYLQMNSLKPVDTAVYYCAVRAPQSYGYDYWGQGTQVTVSS | high polyreactivity
34 | QVQLVESGGGLVQAGGSLRLSCAASGGTFYSYAMGWYRQAPGTERELVAAISRRGGSTYYADSVKGRFTISLDNAKNTVYLQMNSLKPEDTAVYYCNTYIYQVRDDYWGQGTQVTVSS | high polyreactivity
35 | QVQLVESGGGLVQAGGSLRLSCAASGGTFYYNAMGWYRQAPGKERELVAAITDSGGRTYYADSVKGRFTISRDNAKNTVYLQMNSLKPEDTAVYYCAALARRQSRLYDYWGQGTQVTVSS | high polyreactivity
36 | QVQLVESGGGLVQAGGSLRLSCAASGGTFYYNAMGWYRQAPGKERELVAAITSGDRTYYADSVKGRFTISRDNAKYTVYLQMNSLKPEDTAVYYCAARWFRSNKYWGQGTQVTVSS | high polyreactivity
37 | QVQLVESGGGLVQAGGSLRLSCAASGGTFYYYAMGWSRQAPGKERELVAAISTSGTSTYYADSVKGRFTISRDNAKNTVYLQMNSLKPEVTAVYYCAARGLRVSSRGYYWGQGTQLTVSS | high polyreactivity
38 | QVQLVESGGGLVQAGGSLRLSCAASGGTIAGYAMGWYRHAPGKERELVASISDGGSTNYADSVKGRFTISRDNAKNTVYLQMNSLKPEDTAVYYCADLAYVPSYTYDYWGQGTQVTVSS | low polyreactivity
39 | QVQLVESGGGLVQAGGSLRLSCAASGGTIAYNAMGWYRQAPGKERELVAAISSSGGRTYYADSVKGRFTISRDNAKNTVYLQMNSLKPEDTAVYYCATPVTNGFDYWGQGTQVTVSS | high polyreactivity
40 | QVQLVESGGGLVQAGGSLRLSCAASGGTILYYAMGWYRQAPGKEMELVAAISRGGSTHYADSVKWRFTISRDNAKNTVYLQMNRLKPEDTAVFYCAVDGGEFSSYGYWGHGTQVTVSS | low polyreactivity
41 | QVQLVESGGGLVQAGGSLRLSCAASGGTISYYAMGRYRQAPRKERELVAAINWSGASTYYADSVKGRFTNSRDNAKYTVYLELNSLKPEETAVYYCAADSIQYTARPYDYWGQGTQVTVSS | low polyreactivity
42 | QVQLVESGGGLVQAGGSLRLSCAASGGTIVGYAMGWYRQAPGKERELVAAIDSSGGSTYYADSVKGRFTISRDNAKNTVYLQMNSLKPEDTAVYYCAALSTNYYISPYYYYNSKGYDYWGQGTQVTVSS | high polyreactivity
43 | QVQLVESGGGLVQAGGSLRLSCAASGGTIYDNTMGWYRQAPGKERELVAAISRDGSTNYADSVKGRFTISRDNAKNTVYLQMNSLKPEDTAVYYCNKDPVSEYRSPGFPVTYDYWGQGTQVTVSS | low polyreactivity
